{"source": "paper PMC9122598", "about": "“NASP maintains histone H3–H4 homeostasis through two distinct H3 binding modes” (Nucleic Acids Research, 2022)", "tested_on": "H3–H4 tetramer", "experiment": "GST pulldown of H3–H4 with frog GST-NASP.Sc", "assay_type": "binding", "method": "As mentioned above the GST-tagged sNASPc, frog NASP.Sc and their mutants could not be separated into dimer and monomer peaks during the purification steps, the conformations of these proteins used for pulldowns were mixtures of dimer and monomer. […] All the samples were analyzed with SDS-PAGE.", "data": [{"molecule": "frog NASP.S: frog homologue of sNASP (N1/N2); tested as GST-NASP.Sc dimer/monomer mixture (protein, left off: GST, N-terminal, cleaved, frog homologue of sNASP (N1/N2); tested as GST-NASP.Sc dimer/monomer mixture) SAEKADGIDIDTEAKRLMGAGQKHLVMKDVRSAVNLFQEASSLLAKQYGETADECAEAFYSYGMSLLELARLENEGTEEKETEEEDVGNLQLAWEMLDLCKTIFKRQQSKEAQLKAAQAHQKLGEVCIESENYSQAVEDFLACLNIQKEHLEEHDRLLAETHYHLGLAYQYSSKHEEAISHFTQSIGVIEKRMDVLTKQLEASVGELVDEVKKEMDELKDLLPDIKEKIEDSKEAQKNATVTEKALKETLVGGSS", "values": [{"measurement": "Retention of H3 vs H4 in pulldown", "setting": "in the absence of H3 αN-binding", "value": "retained more H3 than H4"}, {"measurement": "Pulldown binding to H3–H4", "setting": "incubation 0.3 M NaCl, wash […] NaCl", "value": "H3 αN- and α3-binding sites are conserved"}]}]}
